Source: paper PMC2954053

Legend:
TRAP150 = TRAP150 (UniProt Q9Y2W1); assay: anti-Flag co-IP, TRAP150 blot; details: reference: wild type Flag-PSF; sites T687
BTF = BTF (UniProt Q9NYF8); assay: anti-Flag co-IP, BTF blot; details: reference: wild type Flag-PSF; sites T687

## PSF (from UniProt P23246) T687A
TRAP150
  binding against the reference: weaker
BTF
  binding against the reference: weaker
